Data published in PMC9658050.
Several values for one entry are separate records, joined by “and”; a condition that tells them apart may be missing. Equal values may be shown once.

Columns and labels:
[1] = biological target: His-tagged truncated SARS-CoV-2 E protein (residues 8-65) (SARS-CoV-2) (UniProt P0DTC4); assay: AUC
[2] = biological target: Full-length SARS-CoV-2 envelope (E) protein (SARS-CoV-2) (UniProt P0DTC4); assay: AUC

“His-tagged truncated SARS-CoV-2 E protein (residues 8-65) (from UniProt P0DTC4 8-65) (domain or fragment)” was tested, and the Log10 Ka (monomers to pentamer) [1] was 16, the percent of the sample as trimers [1] was 60% and the stoichiometry N [1] was 3.
In the case of “Full-length SARS-CoV-2 envelope (E) protein (from UniProt P0DTC4 1-75) (natural protein)”, the Log10 Ka (monomers to pentamer) [2] is reported as 17.4, the percent of the sample as pentamers [2] is reported as 80% and the stoichiometry N [2] is reported as 3 and 5.
